From article PMC6158212

Biological target: GP ectodomain of EBOV strain Mayinga-76 with a deleted mucin-like domain (EBOV GPΔMuc) (Zaire EBOV strain Mayinga-76)
Assay: crystal structure

Substance: GP ectodomain of EBOV strain Mayinga-76 with a deleted mucin-like domain (EBOV GPΔMuc) (complex)
- stoichiometry N: 3
